In patent US20240060104A1, “ATP-PRT VARIANT WITH REDUCED FEEDBACK INHIBITION BY HISTIDINE, AND HISTIDINE-PRODUCING STRAIN EXPRESSING SAME” (DAESANG CORPORATION, priority 2020, published 2024):

Target: T1, ATP phosphoribosyltransferase (Escherichia coli, UniProt P60757, E271K/H232T/R250H/S288P/T252L)
T1 construct: endogenous in cells; host or cells: E. coli DS9H (chromosomal hisG); sonicated cells, centrifuged supernatant
Format: biochemical, E. coli
Details: FIG. 1, compared among hisG_WT, hisG_SDM4, hisG_SDM7
Procedure: Each strain was cultured under conditions of 30° C. and 180 rpm. When the OD600 reached 0.6, ATP-PRT expression was induced with 1 mM IPTG (final concentration) and additional culture was performed for about 4 hours. The cells obtained after culturing were sonicated and centrifuged. The obtained supernatants were used for evaluation of ATP phosphoribosyltransferase activity. […] The protein in each supernatant was quantified to match the concentration, and the enzyme activity was measured after mixing the reactants according to the reaction composition shown in Table 8 below.
The activity was measured at 30° C. at a UV wavelength of 290 nm at 2 minute intervals for 30 minutes.

B1: hisG_SDM7: ATP-PRT variant containing H232T, R250H, T252L, E271K and S288P mutations (protein)
chain: MTDNTRLRIAMQKSGRLSDDSRELLARCGIKINLHTQRLIAMAENMPIDILRVRDDDIPGLVMDGVVDLGIIGENVLEEELLNRRAQGEDPRYFTLRRLDFGGCRLSLATPVDEAWDGPLSLNGKRIATSYPHLLKRYLDQKGISFKSCLLNGSVEVAPRAGLADAICDLVSTGATLEANGLREVEVIYRSKACLIQRDGEMEESKQQLIDKLLTRIQGVIQARESKYIMMTAPTERLDEVIALLPGAEHPLILPLAGDQQRVAMHMVSSKTLFWETMEKLKALGASPILVLPIEKMME
modifications: hisG_SDM7
notes: ATP-PRT variant containing H232T, R250H, T252L, E271K and S288P mutations
B1 was tested, and the “Resistance to activity inhibition by histidine” value was “best resistance”.
